Reference: article PMC8672811 (Journal of molecular biology, 2021)
Read-outs that look alike come from different tables or passages of the source.

Columns and labels:
[1] = target: the molecule itself; test: SEC
[2] = target: the molecule itself; test: SEC; remark: listed apart in the source
[3] = target: the molecule itself; test: SEC; remark: listed apart in the source
[4] = target: the molecule itself; test: crystal structure

B1: KcsA W67F channel (natural protein, UniProt P0A334 1-125, looked up)
chain: MPPMLSGLLARLVKLLLGRHGSALHWRAAGAATVLLVIVLLAGSYLAVLAERGAPGAQLITYPRALFWSVETATTVGYGDLYPVTLWGRLVAVVVMVAGITSFGLVTAALATWFVGREQERRGHF
With B1 the “stoichiometry N” value [1] was 4.

B2: KcsA W67F/F103A channel (natural protein, UniProt P0A334 1-125, looked up)
chain: MPPMLSGLLARLVKLLLGRHGSALHWRAAGAATVLLVIVLLAGSYLAVLAERGAPGAQLITYPRALFWSVETATTVGYGDLYPVTLWGRLVAVVVMVAGITSAGLVTAALATWFVGREQERRGHF
B2: binds [2].

B3: KcsA Y82A channel (natural protein, UniProt P0A334 1-125, looked up)
chain: MPPMLSGLLARLVKLLLGRHGSALHWRAAGAATVLLVIVLLAGSYLAVLAERGAPGAQLITYPRALWWSVETATTVGYGDLAPVTLWGRLVAVVVMVAGITSFGLVTAALATWFVGREQERRGHF
In the case of B3, the “stoichiometry N” value [3] is reported as 4.

B4: KcsA W67F channel, locked open (disulfide cross-linked open-state construct) (natural protein, UniProt P0A334 21-125, looked up)
chain: GSALQWRCAGAATVLLVIVLLAGSYLAVLAERGAPGAQLITYPRALFWSVETATTVGYGDLYPVTLWGRLVAVVVMVAGITSFGLVTAALATWFVGQCQQQQGHF
modifications: Cys mutant channels in the cross-linked state (disulfide crosslink between subunits)
B4 was tested, and the “stoichiometry N” value [2] was 4.

B5: KcsA WT channel trapped with the activation gate open (disulfide cross-linked open-state construct) (natural protein, UniProt P0A334 21-125, looked up)
chain: GSALQWRCAGAATVLLVIVLLAGSYLAVLAERGAPGAQLITYPRALWWSVETATTVGYGDLYPVTLWGRLVAVVVMVAGITSFGLVTAALATWFVGQCQQQQGHF
modifications: Cys mutant channels in the cross-linked state (disulfide crosslink between subunits)
B5: binds [4].
